Measurements: US20100129344A1, “MEDICAL USES AND THERAPIES BASED UPON THE ACTION OF AZUROCIDIN ON IGFBP-1” (priority 2005, published 2010)

Experiments:
IGFBP-1 [1] = target: T1, IGFBP-1 (Homo sapiens, UniProt P08833); assay: Azurocidin-dependent IGFBP-1 protease activity (SDS-PAGE, ECL or silver staining); assay type: biochemical; settings: for effect on IGFBP-1 (proteolysis): commercial recombinant protein from mouse myeloma cells
T1 construct: purchased Kabi Pharmacia (Sweden), donated
T1 sequence (P08833 26-259): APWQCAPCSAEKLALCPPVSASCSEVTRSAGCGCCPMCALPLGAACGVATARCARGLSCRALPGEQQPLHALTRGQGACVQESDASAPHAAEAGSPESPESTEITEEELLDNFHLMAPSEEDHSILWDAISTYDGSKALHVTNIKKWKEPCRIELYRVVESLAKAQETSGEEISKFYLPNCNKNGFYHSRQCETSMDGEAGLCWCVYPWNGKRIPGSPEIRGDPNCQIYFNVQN
Method: Recombinant phosphorylated IGFBP-1 was used as substrate and incubations were carried out under neutral conditions for 2 h at 37 C. IGFBP-1 fragments were separated on SDS-PAGE, and detected by ECL as described in the methods. Panel A: Incubations with 0.25 μL eluate (HE) from heparin affinity chromatography (50 μl urine equiv.) in the presence and absence of anti-azurocidin antibody; and 1 μl HE of the loading material (L), and the flow through after affinity chromatography on protein G columns without (G) and with bound anti-chymase (C) or anti-azurocidin (A) antibodies. Panel B: Incubations in the presence and absence of 25 ng anti-azurocidin antibody with increasing volumes of white cell extract from the individual with a specific IGFBP-1 protease in urine compared to the white cell extract pooled from 6 healthy subjects;
Recombinant IGFBP-1 was incubated with the eluate from heparin affinity chromatography (HE) with a ratio of azurocidin:BP-1 of 1:3,500. After the times indicated, proteins were detected by silver staining after SDS-PAGE;
Gels were fixed, dried and analysed with the Fuji PhosphoImage program (Fuji Co., Stockholm, Sweden). Biotinylated IGFBP-1 and its fragments were separated on 14% SDS-PAGE under reducing conditions, transferred to PVDF (Biorad, Sundbyberg, Sweden), incubated with neutravidin-horseradish peroxidase (Pierce Biotechnology Inc, Rochester, Ill.) and detected by ECL (Amersham Biosciences, Uppsala, Sweden). Silver staining of proteins and fragments was performed after denaturing 12% PAGE under reducing conditions (SilverQuest and NuPAGE, Invitrogen, Stockholm, Sweden).
Heparin affinity chromatography was carried out in batches using heparin-agarose gel (Pharmacia). Urine was diluted 1:5 in 10 mM sodium phosphate, with 0.25 M NaCl buffer, pH 7 and incubated with gel for 30 min at 4 C. The gel was transferred to a column and washed with 10 times the gel volume of buffer. Heparin binding proteins were eluted in loading buffer containing 2M NaCl and the eluate was desalted, concentrated using a 10 kDa spin column and stored at −80 C. Concentrated material derived from 700 ml urine were applied to C4 reverse-phase HPLC, in 0.1% TFA on an acetonitrile gradient of 0-100%. Immunoaffinity chromatography was performed using monoclonal anti-azurocidin antibody attached to protein G Sepharose (Sigma-Aldrich, Sweden). In brief, antibody bound gel was incubated with the eluate from heparin affinity chromatography for 2 h at 22 C, and transferred to a Bio-Spin chromatography column (BioRad). The flow-through was collected for analysis of protease activity. As controls, an additional column was prepared with a monoclonal antibody against human mast cell chymase and a second column with no bound antibody.

IGFBP-1 [2] = target: T1, IGFBP-1; assay: Sequence analysis of IGFBP-1 fragments after azurocidin-dependent proteolysis; assay type: biochemical
Method: A: Recombinant npIGFBP-1 was incubated without (−) and with (+) 0.25 μl partially purified azurocidin in a protease:substrate ratio of 1:3 500 for 2 h at 37 C. The fragments were purified on HPLC. N-, purified fragments with the N-terminal sequence of IGFBP-1, APWQCAP-, c-, small fragment with the sequence STYDGSK-, C-, purified C-terminal fragments with the sequence TNIKKWK-. Samples were separated on 12% SDS-PAGE and visualised by silver staining. Molecular mass markers are indicated by the arrows. B: Summary of sequence analysis of IGFBP-1 fragments after azurocidin-dependent proteolysis. N-terminal sequence analysis was performed on fragments purified by HPLC on 4 separate occasions. C-terminal sequence analysis was perform on one HPLC run. Cleavage sites are indicated by the arrows. a, the primary cleavage site present in 4 runs. b, a secondary cleavage site, present in 3 runs. c, cleavage sites, each identified in only one of the four runs. […]
The primary cleavage site in IGFBP-1 was determined by HPLC-separation of phosphorylated IGFBP-1 after incubation with heparin eluate, and HPLC purification of fragments, followed by N- and C-terminal sequencing. […] N- and C-terminal sequencer degradations were performed on HPLC purified proteins in ABI instruments as described (refs 2 and 3), From this analysis, the quantity of azurocidin quantity in urine was estimated to be 25 pmol/100 ml.

B1: partially purified azurocidin: desalted eluate of heparin affinity chromatography of human urine, containing azurocidin, myeloperoxidase and lactoferrin (protein)
chain: IVGGRKARPRQFPFLASIQNQGRHFCGGALIHARFVMTAASCFQSQNPGVSTVVLGAYDLRRRERQSRQTFSISSMSENGYDPQQNLNDLMLLQLDREANLTSSVTILPLPLQNATVEAGTRCQVAGWGSQRSGGRLSRFPRFVNVTVTPEDQCRPNNVCTGVLTRRGGICNGDGGTPLVCEGLAHGVASFSLGPCGRGPDFFTRVALFRDWIDGVLNNPGP
For B1, the “IGFBP-1 proteolytic activity after exposure to 0.1% TFA” value (IGFBP-1 [1]; 0.1% TFA in HPLC buffer, lyophilization, reconstitution in assay buffer) was “abolished”, the IGFBP-1 protease activity (IGFBP-1 [1]; after heparin affinity chromatography of urine) was “present” and the “IGFBP-1 proteolytic activity after reduction with dithiothreitol” value (IGFBP-1 [1]; data not shown) was “loss of activity”. For the same molecule, the “secondary cleavage site in IGFBP-1” value (IGFBP-1 [2]; present in 3 of the HPLC runs) was “Val^141-Thr^142” and the “primary cleavage site in IGFBP-1” value (IGFBP-1 [2]; present in all 4 HPLC runs, confirmed by C-terminal sequence analysis) was “Ile^130-Ser^131”.

B2: Recombinant human azurocidin^27-250: recombinant azurocidin 27-250 purified from murine myeloma cells, R&D Systems (protein)
chain: IVGGRKARPRQFPFLASIQNQGRHFCGGALIHARFVMTAASCFQSQNPGVSTVVLGAYDLRRRERQSRQTFSISSMSENGYDPQQNLNDLMLLQLDREANLTSSVTILPLPLQNATVEAGTRCQVAGWGSQRSGGRLSRFPRFVNVTVTPEDQCRPNNVCTGVLTRRGGICNGDGGTPLVCEGLAHGVASFSLGPCGRGPDFFTRVALFRDWIDGVLNNPGPGP
In the case of B2, the “effect on IGFBP-1 (proteolysis)” value (IGFBP-1 [1]; data not shown) is reported as “no effect” and the “effect on IGFBP-1 (proteolysis)” value (IGFBP-1 [1]; data not shown, listed as recombinant azurocidin) is reported as “lacked activity”.
